Reference: the supplement of paper PMC9170038

Key:
[1] = test system: MS2 coat protein; assay: apparent KD of MS2 coat protein, switch ON state; designed switch direction (-1 OFF switch, 1 ON switch): -1; higher = weaker reporter binding; details: FMN input: 0 or 200 uM; Eterna round: R93 (includes R88 designs)
In short: (§1)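 Illumina sequencing clusters were used for on-chip transcription of designed RNA switches. Titration with SNAP-549-labelled MS2 coat protein followed, in twofold steps from 0.7 or 1.5 nM to 3 µM in 100 mM Tris-HCl pH 7.5, 80 mM KCl, 4 mM MgCl2, without or with constant ligand. Apparent KD is each design's median of fits to normalised cluster binding curves.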

[2] = test system: MS2 coat protein; assay: apparent KD of MS2 coat protein, switch OFF state (with FMN for OFF switches, without FMN for ON switches); designed switch direction (-1 OFF switch, 1 ON switch): -1; higher = weaker reporter binding; details: FMN input: 0 or 200 uM; Eterna round: R93 (includes R88 designs)
In short: as §1

Sequence | apparent KD of MS2 coat protein [1] | apparent KD of MS2 coat protein [2]
AACAGUACAGGAUAUACAUGAGGAUCACCCAUGUGAGAAUUUAGCAGCGUAACACACAGUAGAAGGGUAAUGGA [Ruby 21] | 45.4 nM | 39.3 nM
AAGAAGUGAGGAUAUGCUGACAAUAUGAAGACUUGAGGUAUGCAGAAGGCACAUGAGGAUCACCCAUGUAAGAA [JR_Exclusion4_Sub4] | 27.4 nM | 23.6 nM
AAACGUUGAGGAUAUACGAAAAAGGGUAGGUCAAAUAAAACACAUGAGGAUCACCCAUGUAGAAGGCAACGAAA | 333 nM | 3.66 nM
UUUAUGUGAGGAUAUACGAAUAGUAAGUAAGUCUUACAGACGUAGAAGGCACAUGAGGAUCACCCAUGUGAACC [JR_Exc004_Sub309] | 46.4 nM | 277 nM
GGUUGGCGAGGAUAUACAUGAGGAUCACCCAUGUGAGCGAAAAAAGUGAGAAAGAAAAGUAGAAGGCGCUGACG [salish99-ex3-50] | 45.7 nM | 60.5 nM
AAGAAGUGAGGAUAUCGAAGACAGACGAAAAGUCUGUCAAACGAGAAGGCACAUGAGGAUCACCCAUGUAAGAA [What have we learned so far?] | 34.8 nM | 43.7 nM
AAAAGUUCAGGAUAUACAUGAGGAUCACCCAUGUAGAAAGGAAGUGUAAAAAAAAAGUGUAGAAGGGAGCAUGA [MS2 Riboswitches On Chip Exclusion 3 wbt2] | 22.2 nM | 21.8 nM
AAGAACCUAGGAUAUACUUGGGUAACUAAUAAACUGAUAUAACAUGAGGAUCACCCAUGUAGAAGGAGGAGAAA [JR_Exc002_Sub204] | 50.1 nM | 62.4 nM
AAAAAGUGAGGAUAUACAUGAGGAUCACCCAUGUUAAGGUAAUAUAUAUAUAUAUAUAGUAGAAGGCACAAAAA [Default title] | 32.4 nM | 31.5 nM
CUCAUGUGAGGAUAUCAGUAGUAAAAAAAUAAAAUUACUACUGAGAAGGCACAUGAGGAUCACCCAUGUGAAAA [EX4 339: Super Stable 39] | 27.4 nM | 16.1 nM
AAGAAGUGAGGAUAUCGAAGACUGUCGAAAAGACAGUCGAACGAGAAGGCACAUGAGGAUCACCCAUGUGAGAG [Mat - Exaclusion 4 - Eli mod - D66] | 31.9 nM | 46.2 nM
AAAAAGGGAGGAUAUACAUGAGGAUCACCCAUGUAAAAAAAAAAAAAGGGAAAAAAAAGUAGAAGGCCCAAAAA [Apepi] | 50.1 nM | 52.6 nM
GAAAAGUCAGGAUAUGCAGAUAAAAAAACGAAAAAAAAUCUGCAGAAGGGACAUGAGGAUCACCCAUGUAAAAG [Mat - Exclusion 4 - Mayanna - D110] | 66.3 nM | 54.2 nM
AAAAAGUGAGGAUAUACAUGAGAAAAAAAAAUGUAAAAAAAACAUGAGGAUCACCCAUGUAGAAGGCACAAAAA [Ecxl-II] | 40.8 nM | 83.5 nM
GUGUACAGAGGAUAUAUAUAAGCAUGGAAACAUGCAAGAUCACAUGAGGAUCACCCAUGUAGAAGGCUGUACAC [Ex2: 737] | 23.3 nM | 73.7 nM
GCUUGUGUAGGAUAUACAUGAGGAUCACCCAUGUGAGAGAAAAAAGUGAGAAAGAAAAGUAGAAGGACGUGAGG [salish99-ex3-80] | 86.5 nM | 76.5 nM
AAAAAGGCAGGAUAUACGAAGCUAAGACAAAUAAGCAAGGGACAUGAGGAUCACCCAUGUAGAAGGGCCAAAAA [Exclusion 2-01... 60% 3] | 41.1 nM | 132 nM
AUAGUACAUGAGGAUCACCCAUGUCAGGAUAUUCGAAAUGAAAAAAAAAAAAAAUGAAGGAGAAGGGACUAUAA [EX1 Malc#11] | 74.7 nM | 72 nM
UUAGAACAUGAGGAUCACCCAUGUGAGGAUAUGCAAUACUAGCGACAAGAUCAUUAUAGCAGAAGGCACGUAGU [JR_EXc001_Sub806] | 30.1 nM | 40 nM
AACAGUACAGGAUAUACAUGAGGAUCACCCAUGUGAGAAUUAAGUGGAAAACCACAAAGUAGAAGGGUACUGGA [Mat - Exclusion 3 - JL mod - D3] | 26.6 nM | 234 nM
